US20260008815A1, “CYCLIC PEPTIDE OR SALT THEREOF, AND USES THEREOF” (FUJIFILM Corporation, priority 2023, published 2026)
Bridge positions count the residues as written; N and C are the ends. Ends that are not written are not given here.

What was measured:
[1] = Molecular stability after reducing agent (DTT) treatment, LC; type: physicochemical; conditions: residual rate after DTT aqueous solution, room temperature, 1 hour
Protocol: The molecular stability of the cyclic peptide was evaluated by analyzing an aqueous solution of the cyclic peptide treated with a reducing agent by liquid chromatography (LC).
The reducing agent treatment was performed under the following conditions based on the concentration of glutathione contained in the cells. 25 μL of a 0.2 mg/mL cyclic peptide aqueous solution was prepared, 58.8 μL of a 12.6 mmol/L DTT aqueous solution was added to the aqueous solution, and the mixture was incubated at room temperature for 1 hour to obtain an aqueous solution of the cyclic peptide treated with a reducing agent. The DTT aqueous solution was used by diluting a 1 mol/L (+−)-dithiothreitol (DTT) solution (FUJIFILM Wako Pure Chemical Corporation, 044-33871) with water. The total area of all the peaks in LC/MS of the cyclic peptide before the reducing agent treatment was set to 100%, and the proportion of the total area of all the peaks in LC/MS of the aqueous solution of the cyclic peptide treated with the reducing agent was determined to calculate the residual rate of the cyclic peptide, and the molecular stability was evaluated according to the following evaluation criteria. The evaluation result preferably satisfies the evaluation criteria A, B, or C.
The LC used for the evaluation of molecular stability was set to the following conditions. • LC device: Prominence series (pump, column oven, autosampler, detector) (manufactured by Shimadzu Corporation) • Detector: photodiode array detector (SPD-M20A), measurement wavelength of 280 nm • Column: TSKgel ODS-100V, inner diameter of 4.6 mm×length of 150 mm, particle diameter of 5 μm (manufactured by Tosoh Corporation) • Eluent A: solution containing 0.1% trifluoroacetic acid as solute, and solvent is 100% water • Eluent B: solution containing 0.1% trifluoroacetic acid as solute, and solvent is 100% acetonitrile • Flow rate: 1.0 mL/min • Injection amount: 25 μL • Gradient: 20% to 50%: Eluent B (0 to 15 minutes), 100%: Eluent B (15 minutes) • Column temperature: 40° C.

[2] = target: T1, Recombinant Human FGFR2 alpha (IIIc) Fc Chimera Protein (Homo sapiens, UniProt P21802); test: SPR binding affinity of chemically synthesized cyclic peptide to immobilized FGFR; conditions: SPR binding amount at 10 nmol/L cyclic peptide, 25° C., per one molecule of FGFR; chemically synthesized product
T1 construct: Fc (chimera); purchased R&D systems 712-FR-050
Protocol: The binding affinity of the cyclic peptide to FGFR was evaluated using a surface plasmon resonance (SPR) method.
A CM5 sensor chip (Cytiva, 29149603) was set in Biacore-T200 (manufactured by Cytiva) which is a surface plasmon resonance device, and an HBS-EP buffer (Cytiva, BR100826) was added as a running buffer at a flow rate of 10 μL/min to equilibrate the flow channel. Next, 70 μL of a mixed aqueous solution of 0.2 mol/L 1-(3-dimethylaminopropyl)-3-ethylcarbodiimide (EDC) and 0.05 mol/L N-hydroxysuccinimide (NHS) was added to activate the sensor chip. Then, Recombinant Human FGFR2 alpha (IIIc) Fc Chimera Protein CF (R&D systems, 712-FR-050) prepared at 50 nmol/L in an Acetate 4.5 buffer (Cytiva, BR100350) was added thereto to perform immobilization at about 5000 RU. Thereafter, the blocking treatment was performed with an ethanolamine solution. In addition, in another flow channel of the same sensor chip, blocking treatment was performed immediately after activation without immobilizing FGFR.
A cyclic peptide diluted to 10 nmol/L using HBS-EP was added to each flow channel of the FGFR-immobilized sensor chip produced above at 25° C. for 10 minutes, then HBS-EP was allowed to flow as a running buffer for 30 minutes, and the binding of the cyclic peptide to FGFR was measured. Thereafter, a regeneration treatment of removing the bound cyclic peptide was performed by repeating the flow of a regeneration liquid in which sodium chloride powder was dissolved in Glysine 1.5 (Cytiva, BR100354) to a final concentration of 0.15 mol/L for 1 minute in each flow channel twice. The binding amount of the cyclic peptide was evaluated from the difference between the measured value of Biacore-T200 in the flow channel in which FGFR was immobilized and the measured value of Biacore-T200 in the flow channel in which FGFR was not immobilated, in a case where a 10 nmol/L cyclic peptide was allowed to flow.
The binding amount of the cyclic peptide evaluated above was normalized to the binding amount of the cyclic peptide molecules per one molecule of FGFR using the molecular weights of the cyclic peptide and FGFR, and the binding affinity to FGFR was evaluated according to the following evaluation criteria. The evaluation result preferably satisfies the evaluation criteria A, B, or C.

[3] = tested on: BaF3 cells stably expressing FGFR (porcine); test: BaF3 cell proliferation-promoting effect; type: cell-based; conditions: number of viable cells at the addition concentration (0.001 to 10 nmol/L) giving the largest number; 2 nights; negative control about 100 cells/well
Protocol: (§1) The FGFR phosphorylation ability of the cyclic peptide complex was evaluated using the BaF3 cell proliferation-promoting effect in which FGFR was stably expressed.
(§2) BaF3 cells stably expressing FGFR were established by introducing a vector (human: Sino Biologicals, HG10824-UT, bovine: sequence of Accession No. F1MNW2 was introduced into pCDNA3.1/Hygro(+) Mammalian Expression Vector (Thermo, V87020), porcine: sequence of Accession No. A0A4X1SNN3 was introduced into pCDNA3.1/Hygro(+) Mammalian Expression Vector (Thermo, V87020), and avian: sequence of Accession No. A0A8V0XB17 was introduced into pCDNA3.1/Hygro(+) Mammalian Expression Vector (Thermo, V87020)) into which FGFR gene had been incorporated, into BaF3 cells using NucleoFector (Lonza) and performing drug selection of cells into which the FGFR gene had been introduced using hygromycin.
(§3) The evaluation of the proliferation-promoting effect of BaF3 cells in which FGFR is stably expressed was performed by the following method. First, RPMI-1640 with L-Glutamine and Phenol Red (FUJIFILM Wako Pure Chemical Corporation, 189-02025) and Fetal Bovine Serum (Thermo, 10270-106) were mixed at a volume ratio of 9:1, and then heparin (STEM CELL, 07980) was added thereto such that the final concentration thereof was 8 μg/mL, thereby preparing a culture medium for evaluation (hereinafter, described as RPMI (10% FBS) medium). Next, the BaF3 cells in which FGFR had been stably expressed were washed twice with RPMI (10% FBS) culture medium, suspended in RPMI (10% FBS) culture medium in which the cyclic peptide complex had been dissolved to a final concentration of 0.001 to 10 nmol/L, and seeded in a 384-well plate. In this case, a condition in which the cyclic peptide complex was not added as a negative control was prepared. After culturing at 37° C. (5% CO2) for 2 nights, Hoechst 33342, Trihydrochloride, Trihydrate-10 mg/mL Solution in Water (Thermo, H3570), -Cellstain (registered trademark)-Calcein-AM solution (1 mg/mL DMSO solution) (DOJINDO, C396), and -Cellstain (registered trademark)-PI solution (DOJINDO, P378) were each added to RPMI (10% FBS) culture medium in a volume amount of 1/1,000 at the final concentration, and live/dead staining of the cells were performed by allowing to stand at room temperature for 1 hour, and imaging was performed using a confocal microscope (Yokogawa Electric Corporation, CQ1). The number of viable cells was calculated from the imaging data, and the cell proliferation-promoting effect was evaluated according to the following evaluation criteria. The number of viable cells in the negative control was about 100 cells/well. The evaluation result preferably satisfies the evaluation criteria A, B, or C.
(§4) At an addition concentration of the cyclic peptide complex having the largest number of viable cells, evaluation criteria is as follows.

[4] = tested on: BaF3 cells stably expressing FGFR (avian); test: BaF3 cell proliferation-promoting effect; type: cell-based; conditions: number of viable cells at the addition concentration (0.001 to 10 nmol/L) giving the largest number; 2 nights; negative control about 100 cells/well
Protocol: as §1, §2, §3, §4

[5] = tested on: BaF3 cells stably expressing FGFR (bovine); test: BaF3 cell proliferation-promoting effect; type: cell-based; conditions: number of viable cells at the addition concentration (0.001 to 10 nmol/L) giving the largest number; 2 nights; negative control about 100 cells/well
Protocol: as §1, §2, §3, §4

[6] = tested on: BaF3 cells stably expressing FGFR (human); test: BaF3 cell proliferation-promoting effect; type: cell-based; conditions: number of viable cells at the addition concentration (0.001 to 10 nmol/L) giving the largest number; 2 nights; negative control about 100 cells/well
Protocol: as §1, §2, §3, §4

T1 sequence (P21802 with tags, fused parts or gaps limits assumed): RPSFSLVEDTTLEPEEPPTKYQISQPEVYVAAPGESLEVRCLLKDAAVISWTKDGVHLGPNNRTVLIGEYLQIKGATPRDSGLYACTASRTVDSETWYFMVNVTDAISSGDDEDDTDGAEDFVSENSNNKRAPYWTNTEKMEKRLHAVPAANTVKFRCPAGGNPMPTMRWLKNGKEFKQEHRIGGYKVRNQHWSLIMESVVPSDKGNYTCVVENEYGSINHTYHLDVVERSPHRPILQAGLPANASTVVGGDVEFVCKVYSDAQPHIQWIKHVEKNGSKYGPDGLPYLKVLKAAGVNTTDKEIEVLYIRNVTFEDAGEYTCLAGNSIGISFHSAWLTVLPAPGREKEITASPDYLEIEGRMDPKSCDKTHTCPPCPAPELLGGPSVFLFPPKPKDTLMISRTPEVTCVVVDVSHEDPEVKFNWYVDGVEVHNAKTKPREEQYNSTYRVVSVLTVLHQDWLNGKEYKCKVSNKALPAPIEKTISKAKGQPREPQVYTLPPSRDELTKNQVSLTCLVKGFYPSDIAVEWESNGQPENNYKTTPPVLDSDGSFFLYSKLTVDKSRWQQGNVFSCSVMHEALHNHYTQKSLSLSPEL

Substance	Evaluation result of reductive stability [1]	Evaluation result of binding affinity to FGFR [2]	Evaluation result of cell proliferative properties Porcine [3]	Evaluation result of cell proliferative properties Avian [4]	Evaluation result of cell proliferative properties Bovine [5]	Evaluation result of cell proliferative properties Human [6]
443 (YXEENYLDPEQYQYFIYFXYKKK; not fully specified; Description of Artificial Sequence: Cyclic peptide) [compound 443]	A (The residual rate of cyclic peptide is 90% or more.)	A (The binding amount is 0.7 molecules of the cyclic peptide/one molecule of FGFR or more.)	–	–	–	–
444 (YXEENYLDPEQYQYFIYFXYKKK; not fully specified; Description of Artificial Sequence: Cyclic peptide) [compound 444]	A (The residual rate of cyclic peptide is 90% or more.)	B (The binding amount is 0.5 molecules of the cyclic peptide/one molecule of FGFR or more and less than 0.7 molecules of cyclic peptide/one molecule of FGFR.)	–	–	–	–
446 (YKEENYLDPEQYQYFIYFXYKKK; Description of Artificial Sequence: Cyclic peptide) [compound 446]	A (The residual rate of cyclic peptide is 90% or more.)	A (The binding amount is 0.7 molecules of the cyclic peptide/one molecule of FGFR or more.)	–	–	–	–
447 (YXEENYLDPEQYQYFIYFXYKKK; not fully specified; Description of Artificial Sequence: Cyclic peptide) [compound 447]	A (The residual rate of cyclic peptide is 90% or more.)	A (The binding amount is 0.7 molecules of the cyclic peptide/one molecule of FGFR or more.)	–	–	–	–
448 (YXEENYLDPEQYQYFIYFXYKKK; not fully specified; Description of Artificial Sequence: Cyclic peptide) [compound 448]	A (The residual rate of cyclic peptide is 90% or more.)	A (The binding amount is 0.7 molecules of the cyclic peptide/one molecule of FGFR or more.)	–	–	–	–
449 (YXEENYLDPEQYQYFIYFXYKKK; not fully specified; Description of Artificial Sequence: Cyclic peptide) [compound 449]	A (The residual rate of cyclic peptide is 90% or more.)	A (The binding amount is 0.7 molecules of the cyclic peptide/one molecule of FGFR or more.)	–	–	–	–
451 (YCEENYLDPEQYQYFIYFCYKKK; disulfide 2-19) [compound 451]	D (The residual rate of the cyclic peptide is less than 50%)	D (The binding amount is less than 0.1 molecules of the cyclic peptide/one molecule of FGFR.)	–	–	–	–
452 (YXHENYLDPEQYQYFHYFKYKKK; Description of Artificial Sequence: Cyclic peptide) [compound 452]	A (The residual rate of cyclic peptide is 90% or more.)	A (The binding amount is 0.7 molecules of the cyclic peptide/one molecule of FGFR or more.)	–	–	–	–
453 (YXHENYLDPEQYQYFHYFKKKK; Description of Artificial Sequence: Cyclic peptide) [compound 453]	A (The residual rate of cyclic peptide is 90% or more.)	C (The binding amount is 0.1 molecules of cyclic peptide/one molecule of FGFR or more and less than 0.5 molecules of cyclic peptide/one molecule of FGFR.)	–	–	–	–
454 (XHENYLDPEQYQYFHYFKYKKK; Description of Artificial Sequence: Cyclic peptide) [compound 454]	B (The residual rate of the cyclic peptide is 70% or more and less than 90%)	C (The binding amount is 0.1 molecules of cyclic peptide/one molecule of FGFR or more and less than 0.5 molecules of cyclic peptide/one molecule of FGFR.)	–	–	–	–
455 (KCPQNFINPVQWRYFQHYKNGSGSGSSGSSSGSSKCPQNFINPVQWRYFQHYKN; also: cyclic peptide) [compound 455]	–	–	A (The number of viable cells is 1,000 cells/well or more.)	C (The number of viable cells is 200 cells/well or more and less than 400 cells/well.)	B (The number of viable cells is 400 cells/well or more and less than 1,000 cells/well.)	A (The number of viable cells is 1,000 cells/well or more.)
456 (QCPQNFINPVQWRYFQHYKNKQCPQNFINPVQWRYFQHYKNK; also: cyclic peptide) [compound 456]	–	–	A (The number of viable cells is 1,000 cells/well or more.)	A (The number of viable cells is 1,000 cells/well or more.)	A (The number of viable cells is 1,000 cells/well or more.)	A (The number of viable cells is 1,000 cells/well or more.)
